IntAct's records for PubMed 16462746

B1: Rab5 GDP/GTP exchange factor (Bos taurus (Bovine)), O18973 (parent)
chain: MSLKSERRGIHVDQSELLCKKGCGYYGNPAWQGFCSKCWREEYHKARQKQIQEDWELAERLQREEEEAFASSQSSQGAQSLTFSKFEEKKTNEKTRKVTTVKKFFSASSRVGAKKAEIQEAKAPSPSINRQTSIETDRVSKEFIEFLKTFHKTGQEIYKQTKLFLEAMHYKRDLSIEEQSECTQDFYQNVAERMQTRGKVPPERVEKIMDQIEKYIMTRLYKYVFCPETTDDEKKDLAIQKRIRALHWVTPQMLCVPVNEEIPEVSDMVVKAITDIIEMDSKRVPRDKLACITKCSKHIFNAIKITKNEPASADDFLPTLIYIVLKGNPPRLQSNIQYITRFCNPSRLMTGEDGYYFTNLCCAVAFIEKLDAQSLNLSQEDFDRYMSGQTSPRKQESENWSPDACLGVKQMYKNLDLLSQLNERQERIMNEAKKLEKDLIDWTDGIAKEVQDIVEKYPLEIRPPNQSVAAIDSENVENDKLPPPLQPQVYAG

Variants of: B1
Conditions: with UBE2D3, P61077-1
Sequence of UBE2D3, P61077-1 (P61077 whole entry): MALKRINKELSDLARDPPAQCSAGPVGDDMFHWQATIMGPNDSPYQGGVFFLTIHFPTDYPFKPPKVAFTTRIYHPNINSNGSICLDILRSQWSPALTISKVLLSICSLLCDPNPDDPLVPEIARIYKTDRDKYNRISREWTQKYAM

Variant	effect of a mutation on the interaction
Y25A;Y26A	disrupting interaction
